Experimental findings from US20060078562A1, “RAGE fusion proteins and methods of use” (priority 2004, published 2006) are described below.

For series [1], the target named is Fc receptor on THP-1 cells. The series is described as follows: cell-based or functional assay.
The subject of the next series is amyloid-beta (A-beta). Kind of series: Competition of a RAGE ligand with immobilized amyloid-beta for binding to the fusion protein. The note with it: TTP-4000 initial solution diluted 1:10 or 1:30; RAGE ligand FAC 10 μM. As for the experimental part: The fusion protein of the present invention may also be used to identify compounds having the ability to bind to RAGE.
Known RAGE ligands were coated onto the surface of Maxisorb plates at a concentration of 5 micrograms per well. Plates were incubated at 4° C. overnight. Following ligand incubation, plates were aspirated and a blocking buffer of 1% BSA in 50 mM imidizole buffer (pH 7.2) was added to the plates for 1 hour at room temperature. The plates were then aspirated and/or washed with wash buffer (20 mM Imidizole, 150 mM NaCl, 0.05% Tween-20, 5 mM CaCl2 and 5 mM MgCl2, pH 7.2). […] The fusion protein was added at increasing dilutions of the initial sample. The RAGE fusion protein was allowed to incubate with the immobilized ligand at 37° C. for one hour after which the plate was washed and assayed for binding of the fusion protein. Binding was detected by the addition of an immunodetection complex containing a monoclonal mouse anti-human IgG1 diluted 1:11,000 to a final assay concentration (FAC) of 21 ng/100 μL, a biotinylated goat anti-mouse IgG diluted 1:500, to a FAC of […], and an avidin-linked alkaline phosphatase. […] Binding of the complex to the immobilized fusion protein was quantified by measuring conversion of PNPP to para-nitrophenol (PNP) which was measured spectrophotometrically at 405 nm. […]

Series [2] concerns S100b/RAGE-induced production of TNF-α in THP-1 cells. Kind of series: Inhibition of S100b/RAGE-induced production of TNF-α in THP-1 cells. Format: cell-based. The note with it: 10 μg protein. The protocol:
THP-1 myeloid cells may be cultured in RPMI-1640 media supplemented with 10% FBS and induced to secrete TNF-α via stimulation of RAGE with S100b. When such stimulation occurs in the presence of a RAGE fusion protein, induction of TNF-α by S100b binding to RAGE may be inhibited.
Previous work has shown that the myeloid THP-1 cells may secrete TNF-α in response to RAGE ligands. In this assay, THP-1 cells were cultured in RPMI-1640 media supplemented with 10% FBS using a protocol provided by ATCC. […] The amount of TNF-α secreted by the THP-1 cells was measured 24 hours after the addition of the proteins to the cell culture using a commercially available ELISA kit for TNF-α (R&D Systems, Minneapolis, Minn.).

Series [3] concerns male C57BL/6 mice, cerebral ischemia. The series is described as follows: Mouse model of stroke (cerebral ischemia and reperfusion, infarct). Format: in vivo. The note with it: treated just prior to reperfusion. As for the experimental part:
For example, the RAGE fusion proteins of the present invention may also be used to treat stroke. […] In this model, the […] of a mouse is ligated and then reperfused to form an infart. To assess the efficacy of RAGE fusion proteins to treat or prevent stroke, mice were treated with sRAGE or TTP-4000 or control immunoglobulin just prior to reperfusion.
TTP-4000 was also compared to sRAGE in a disease relevant animal model of stroke. In this model, the […] of a mouse was ligated for 1 hour followed by 23 hours of reperfusion at which point the mice were sacrificed and the area of the infarct in the brain was assessed. […] After the nylon suture had been in place for 1 hour, the animal was re-anesthetized, rectal temperature was recorded and the suture was removed and the incision closed.
Infarct volume was determined by anesthetizing the animals with an intraperitoneal injection of sodium pentobarbital (50 mg/kg) and then removing the brains. […] The infarct area in each section was determined with a computer-assisted image analysis system, consisting of a Power Macintosh computer equipped with a Quick Capture frame grabber card, Hitachi CCD camera mounted on a camera stand. […] The images were captured and the total area of infarct was determined over the sections. […] Summing the infarct volumes of the sections calculated the total infarct volume. […]

Series [4] deals with Zucker diabetic rats, restenosis following vascular injury. The series is described as follows: Diabetic rat model of restenosis (balloon injury of left common carotid artery). Type of series: in vivo. The note with it: 4 days after injury; dose-responsive; FIG. 13B. As for the experimental part:
In these experiments, balloon injury of left common carotid artery was performed in Zucker diabetic and nondiabetic rats using standard procedure. […] A maintenance dose was delivered every other day until day 7 after injury (i.e., at day 1, 3, 5 and 7 after injury). The maintenance dose was high=1 mg/animal for one group, or low=0.3 mg/animal for the second group. To measure vascular smooth muscle cell (VSMC) proliferation, animals were sacrificed at 4 days and 21 days after injury. For the measurement of cell proliferation, 4 day animals received intraperitoneal injection of bromodeoxyuridine (BrDdU) 50 mg/kg at 18, 12, and 2 hours before euthanasia. After sacrifice, the entire left and right carotid arteries were harvested. Specimens were stored in Histochoice for at least 24 hours before embedding. Assessment of VSMC proliferation was performed using mouse anti-BrdU monoclonal antibody. A fluorescence labeled goat anti-mouse secondary antibody was applied. The number of BrdU-positive nuclei per section were counted by two observers blinded to the treatment regimens. The remaining rats were sacrificed at 21 days for morphometric analysis. […] All data were expressed as mean±SD. […]

In series [1], human IgG1 (heat aggregated) (antibody) had a TNF secreted by THP-1 cells in wells precoated with 10 ug/well heat aggregated human IgG1, 24 hours of over 40 ng/well.

B1: TTP-4000: four domain RAGE-IgG Fc fusion protein, SEQ ID NO: 32: human RAGE amino acids 1-251 linked to CH2 and CH3 domains of human IgG (protein, listed as Homo sapiens)
chain: MAAGTAVGAWALVLSLWGAVVGAQNITARIGEPLVLKCKGAPKKPPQRLEWKLNTGRTEAWKVLSPQGGGPWDSVARVLPNGSLFLPAVGIQDEGIFRCQAMNRNGKETKSNYRVRVYQIPGKPEIVDSASELTAGVPNKVGTCVSEGSYPAGTLSWHLDGKPLVPNEKGVSVKEQTRRHPETGLFTLQSELMVTPARGGDPRPTFSCSFSPGLPRHRALRTAPIQPRVWEPVPLEEVQLVVEPEGGAVAPPSVFLFPPKPKDTLMISRTPEVTCVVVDVSHEDPEVKFNWYVDGVEVHNAKTKPREEQYNSTYRVVSVLTVLHQDWLNGKEYKCKVSNKALPAPIEKTISKAKGQPREPQVYTLPPSRDELTKNQVSLTCLVKGFYPSDIAVEWESNGQPENNYKTTPPVLDSDGSFFLYSKLTVDKSRWQQGNVFSCSVMHEALHNHYTQKSLSLSPGK
Consider B1, for which the “binding of fusion protein to immobilized amyloid-beta blocked by the RAGE ligand” value in the series with amyloid-beta (A-beta) is recorded as “completely inhibited”. Moreover, the “blocking S100b induction of TNF-α compared with sRAGE” value in series [2] is on record as “at least as effective”. In addition, in series [3], the “reduction in infarct volume compared to sRAGE” value is “significantly greater reduction”. The “vascular smooth muscle cell proliferation (number of BrdU proliferating cells)” value in series [4] was “significantly reduced”.
